Measured values taken from patent US8748182B2, “Mutant proteins and methods for producing them” (Heptares Therapeutics Limited, priority 2007, dated 2014).
“And” between values parts separate entries of the source, which are not always exact repeats. Identical values can stand only once. Counter-ions that a name gives are not always drawn. Like-named read-outs stand apart in the source and are kept apart here.

How the values were obtained:
[1] = molecular target: T1, βAR-m23 (Meleagris gallopavo, UniProt P07700, A282L/C116L/F327A/F338M/M90V/R68S/Y227A); type: binding, turkey
[2] = molecular target: T1, βAR-m23; experiment: biochemical; type: binding, turkey
[3] = Stability of βAR-m23 and βAR34-424 in different detergents (Ni-NTA partially purified); type: physicochemical
Protocol: FIGS. 6A-6C Stability of βAR-m23 and βAR34-424 in five different detergents. […] Assays were carried out as described in the Methods and the Tm is shown at the intersection between the curves and the discontinuous line. Results are from duplicate measurements in a representative experiment performed in parallel.
Membranes prepared from E. coli expressing βAR-m23 or βAR34-424 were solubilised in DDM, bound to Ni-NTA agarose then washed with either DDM, decylmaltoside (DM), octylglucoside (OG), lauryldimethylamine oxide (LDAO) or nonylglucoside (NG). […] In contrast, functional βAR-m23 was still present in all detergents and the Tm could be determined. As expected, the smaller detergents were considerably more denaturing than either DDM (Tm 52° C.) or DM (Tm 48° C.), with Tms of 25° C. (NG), 23° C. (LDAO) and 17° C. (OG). The difference in Tm between βAR-m23 and βAR34-424 is about 20° C., irrespective of whether the receptors were solubilised in either DDM or DM; […] . The selection strategy used for the generation of βAR-m23 was chosen deliberately to be based upon thermostability, because it is far simpler to apply than selecting for stability in detergents of increasing harshness.
Receptors were eluted in 2×100 μl of buffer (0.4 M NaCl, 1 mM EDTA, 250 mM imidazole pH 8, plus the relevant detergent). […] .
Single point binding assays contained 20 mM Tris pH 8, 0.4 M NaCl, 1 mM EDTA, 0.1% DDM (or corresponding detergent) with 50 nM [^3H]-DHA and 20-100 μg membrane protein in a final volume of 120 μl; equilibration was for 1 h at 4° C. Thermostability was assessed by incubating the binding assay mix, with or without [^3H]-DHA at the specified temperature for 30 minutes; reactions were placed on ice and [^3H]-DHA added as necessary and equilibrated for a further hour. Receptor-bound and free radioligand were separated by gel filtration as described previously. Non-specific binding was determined in the presence of 1 μM of s-propranolol. […] Radioactivity was counted on a Beckman LS6000 liquid scintillation counter and data were analyzed by nonlinear regression using Prism software (GraphPad).

[4] = Thermostability assay of detergent-solubilised βAR34-424 and mutants expressed in E. coli ([3H]-DHA binding after heating 30 min)
Protocol: To determine Tm in the absence of ligand (apo-state, discontinuous lines), detergent-solubilised receptors were incubated for 30 minutes at the temperatures indicated before carrying out the binding assay. […] Data points are from duplicates measurements in a representative experiment.
Binding assays were performed using [^3H]-dihydroalprenolol (DHA) as radioligand as described under “Methods”. Samples were heated for 30 minutes at different temperatures before the assay. […] Data points are from duplicates of one single experiment. This experiment has been repeated several times with similar results.
Expression of βAR and the mutants was performed in XL10 cells (Stratagene). Cultures of 50 ml of 2×TY medium containing ampicillin (100 μg/ml) were grown at 37° C. with shaking until OD600=3 and then induced with 0.4 mM IPTG. Induced cultures were incubated at 25° C. for 4 h and then cells were harvested by centrifugation at 13,000×g for 1 min (aliquots of 2 ml) and stored at −20° C. For the assays, cells were broken by freeze-thaw (five cycles), resuspended in 500 μl of buffer [20 mM Tris pH 8, 0.4 M NaCl, 1 mM EDTA and protease inhibitors (Complete™, Roche)]. After an incubation for 1 h at 4° C. with 100 μg/ml lysozyme and DNase I (Sigma), samples were solubilized with 2% DDM on ice for 30 minutes. Insoluble material was removed by centrifugation (15,000×g, 2 min, 4° C.) and the supernatant was used directly in radioligand binding assays.
Single point binding assays contained 20 mM Tris pH 8, 0.4 M NaCl, 1 mM EDTA, 0.1% DDM (or corresponding detergent) with 50 nM [^3H]-DHA and 20-100 μg membrane protein in a final volume of 120 μl; equilibration was for 1 h at 4° C. Thermostability was assessed by incubating the binding assay mix, with or without [^3H]-DHA at the specified temperature for 30 minutes; reactions were placed on ice and [^3H]-DHA added as necessary and equilibrated for a further hour. […] Radioactivity was counted on a Beckman LS6000 liquid scintillation counter and data were analyzed by nonlinear regression using Prism software (GraphPad).

[5] = [3H]-DHA bound during the heating step

T1 sequence (P07700 34-424 R68S/M90V/C116L/Y227A/A282L/F327A/F338M): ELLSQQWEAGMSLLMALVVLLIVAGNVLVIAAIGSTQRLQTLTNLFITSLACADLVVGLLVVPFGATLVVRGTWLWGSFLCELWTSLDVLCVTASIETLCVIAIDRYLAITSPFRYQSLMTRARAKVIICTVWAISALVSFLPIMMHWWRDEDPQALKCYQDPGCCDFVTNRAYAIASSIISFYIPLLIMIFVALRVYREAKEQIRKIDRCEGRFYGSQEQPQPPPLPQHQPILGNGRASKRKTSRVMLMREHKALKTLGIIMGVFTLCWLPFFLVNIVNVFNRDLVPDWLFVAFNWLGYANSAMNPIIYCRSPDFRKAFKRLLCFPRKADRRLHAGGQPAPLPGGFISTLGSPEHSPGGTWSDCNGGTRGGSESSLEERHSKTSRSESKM

Question: Which results are given for “1-[4,6-propyl-^3H]-dihydroalprenolol [[^3H]-dihydroalprenolol]”?
Answer: Kd ([1]; membranes, n=2, read-out: KD of [3H]-dihydroalprenolol): 6.5 ± 0.2 nM; Kd ([1]; semipurified receptor, read-out: KD for [3H]-DHA binding): 12.5 nM

Question: With C=CCc1ccccc1OC[C@@H](O)CNC(C)C [alprenolol, (−) alprenolol tartrate salt] as the compound, how does the EC50 [2] read?
Answer: The EC50 was 112 nM.

Question: Which “Tm in DDM” value ([3]; DDM) does the source give for “m23: βAR34-424 with R68S, M90V, Y227A, A282L, F327A, F338M” here?
Answer: Its value is 52 °C.

Question: What about the “Tm in DM” value ([3]; DM (decylmaltoside)) of the same compound?
Answer: The value was 48 °C.

Question: What about the “Tm in LDAO” value ([3]; LDAO) of the same compound?
Answer: The value was 23 °C.

Question: And the “Tm in NG” value ([3]; NG (nonylglucoside))?
Answer: The value was 25 °C.

Question: What about the “Tm in OG” value ([3]; OG (octylglucoside)) of the same compound?
Answer: Its value is 17 °C.

Question: And the “difference in Tm between βAR-m23 and βAR34-424” value ([3]; solubilised in either DDM or DM)?
Answer: Its value is “about 20 °C”.

Question: What about the “increase in Tm compared to βAR34-424 (native protein)” value ([4]; DDM-solubilised, heated without ligand) of the same compound?
Answer: Its value is 21 °C.

Question: What about the “Tm (° C.)” value ([4]; Table 2, heated 30 min without ligand, then [3H]-DHA binding, DDM-solubilised, E. coli, mean ± S.E. from duplicates) of the same compound?
Answer: Its value is 52.8 °C and 52.8 ± 1.4 °C.

Question: What about the “Tm with antagonist bound” value [4, 5] of the same compound?
Answer: Its value is 55 °C.

Question: What about the “increase in Tm with bound antagonist versus without antagonist” value [4, 5] of the same compound?
Answer: Its value is 2 °C.

Question: What about the “further increase in Tm on adding one mutation to the preceding mutant” value ([4]; m4-1 to m4-7 to m4-2, m18 to m23) of the same compound?
Answer: Its value is 3 °C.
